Laboratory results from patent US20240270857A1 (CHIA TAI TIANQING PHARMACEUTICAL GROUP, published 2024).

B1: chimeric 84C4 antibody (antibody, human IgG4 S228P, kappa)
heavy: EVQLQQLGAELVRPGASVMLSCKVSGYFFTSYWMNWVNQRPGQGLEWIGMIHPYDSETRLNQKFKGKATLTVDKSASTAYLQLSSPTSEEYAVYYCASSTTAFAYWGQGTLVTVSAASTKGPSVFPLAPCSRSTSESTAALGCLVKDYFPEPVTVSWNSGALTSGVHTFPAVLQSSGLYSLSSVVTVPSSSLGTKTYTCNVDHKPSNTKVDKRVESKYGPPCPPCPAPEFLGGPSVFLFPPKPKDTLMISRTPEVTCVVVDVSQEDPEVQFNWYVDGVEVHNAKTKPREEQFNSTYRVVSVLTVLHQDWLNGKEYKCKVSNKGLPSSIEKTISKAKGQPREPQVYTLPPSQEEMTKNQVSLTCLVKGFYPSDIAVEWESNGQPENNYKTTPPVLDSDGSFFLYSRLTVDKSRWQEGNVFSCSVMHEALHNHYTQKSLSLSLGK
light: DILMTQSPSSLSASLGERVSLTCRASQDIGNALNWLQQAPDGTIKRLIYATSSLDPGVPKRFSGSRSGSDYSLTISSLASEDFVYYYCLQYASSPYTFGGGTKLEIKRTVAAPSVFIFPPSDEQLKSGTASVVCLLNNFYPREAKVQWKVDNALQSGNSQESVTEQDSKDSTYSLSSTLTLSKADYEKHKVYACEVTHQGLSSPVTKSFNRGEC
notes: Mouse variable regions on human IgG4 / kappa; also called xi84C4
B2: BI655130 (antibody, human IgG1, kappa, L234A L235A)
heavy: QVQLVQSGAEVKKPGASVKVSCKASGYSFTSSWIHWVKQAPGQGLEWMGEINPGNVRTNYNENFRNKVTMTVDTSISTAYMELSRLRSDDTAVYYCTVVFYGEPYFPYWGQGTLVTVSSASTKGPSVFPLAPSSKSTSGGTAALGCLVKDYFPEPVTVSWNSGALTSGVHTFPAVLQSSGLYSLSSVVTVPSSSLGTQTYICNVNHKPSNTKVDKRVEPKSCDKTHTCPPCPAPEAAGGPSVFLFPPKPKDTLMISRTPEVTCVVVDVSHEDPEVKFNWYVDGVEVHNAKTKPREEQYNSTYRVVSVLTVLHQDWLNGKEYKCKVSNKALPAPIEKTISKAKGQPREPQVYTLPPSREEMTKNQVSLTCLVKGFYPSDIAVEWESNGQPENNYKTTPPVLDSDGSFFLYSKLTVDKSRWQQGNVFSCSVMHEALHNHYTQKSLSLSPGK
light: QIVLTQSPGTLSLSPGERATMTCTASSSVSSSYFHWYQQKPGQAPRLWIYRTSRLASGVPDRFSGSGSGTDFTLTISRLEPEDAATYYCHQFHRSPLTFGAGTKLEIKRTVAAPSVFIFPPSDEQLKSGTASVVCLLNNFYPREAKVQWKVDNALQSGNSQESVTEQDSKDSTYSLSSTLTLSKADYEKHKVYACEVTHQGLSSPVTKSFNRGEC
notes: also called Spesolimab
B3: chimeric 72C1 antibody (antibody, human IgG4 S228P, kappa)
heavy: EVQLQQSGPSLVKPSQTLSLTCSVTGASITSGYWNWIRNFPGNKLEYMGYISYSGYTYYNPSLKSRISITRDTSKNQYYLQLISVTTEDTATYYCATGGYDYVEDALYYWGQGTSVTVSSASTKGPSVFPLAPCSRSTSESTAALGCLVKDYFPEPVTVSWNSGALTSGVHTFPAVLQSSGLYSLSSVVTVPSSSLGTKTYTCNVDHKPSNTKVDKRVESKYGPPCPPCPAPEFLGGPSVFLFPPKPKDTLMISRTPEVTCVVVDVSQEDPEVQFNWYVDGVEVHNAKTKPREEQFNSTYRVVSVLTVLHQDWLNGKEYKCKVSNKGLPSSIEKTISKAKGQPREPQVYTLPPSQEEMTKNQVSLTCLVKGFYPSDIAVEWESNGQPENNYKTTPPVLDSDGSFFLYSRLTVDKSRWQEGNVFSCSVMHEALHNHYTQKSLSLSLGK
light: EILLTQSPAIMSATLGEKVTMSCRASSNVRYMYWYQLKSGASPKLWIYLTSNLASGVPARFSGSGSGTSYSLTISSVEAEDAATYFCQQFTTSPYTFGGGTKLEIKRTVAAPSVFIFPPSDEQLKSGTASVVCLLNNFYPREAKVQWKVDNALQSGNSQESVTEQDSKDSTYSLSSTLTLSKADYEKHKVYACEVTHQGLSSPVTKSFNRGEC
notes: Mouse variable regions on human IgG4 / kappa; also called xi72C1

Assays:
[1] = target: T1, IL-36R naturally expressed on OVCAR8 cells and on normal human epidermal keratinocytes (NHK cells) (human, UniProt Q9HB29 20-575); test: cell-based or functional assay
T1 sequence (looked up): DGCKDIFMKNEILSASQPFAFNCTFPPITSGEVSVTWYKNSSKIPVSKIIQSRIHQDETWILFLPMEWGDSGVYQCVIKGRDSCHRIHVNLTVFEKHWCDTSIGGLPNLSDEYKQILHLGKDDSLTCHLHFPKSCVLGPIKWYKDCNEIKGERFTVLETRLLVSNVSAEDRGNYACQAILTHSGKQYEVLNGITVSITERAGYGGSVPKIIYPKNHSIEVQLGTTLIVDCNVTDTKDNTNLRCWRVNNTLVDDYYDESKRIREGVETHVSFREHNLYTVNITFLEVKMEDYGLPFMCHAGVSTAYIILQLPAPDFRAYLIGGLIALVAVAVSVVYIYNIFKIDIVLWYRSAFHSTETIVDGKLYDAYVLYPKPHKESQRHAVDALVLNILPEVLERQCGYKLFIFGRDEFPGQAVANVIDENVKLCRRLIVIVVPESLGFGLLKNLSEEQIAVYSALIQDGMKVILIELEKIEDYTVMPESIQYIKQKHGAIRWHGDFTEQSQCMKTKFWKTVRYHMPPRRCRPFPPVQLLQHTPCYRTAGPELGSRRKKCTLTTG

[2] = target: T2, Human IL-1Rrp2/IL-1R6 protein, His Tag (ACROBiosystems, IL2-H52H6) (human, UniProt Q9HB29 20-335); test: ELISA, plate coated with human IL-1Rrp2/IL-1R6 His Tag, HRP-protein A/G, OD450
T2 construct: Bought protein; the soluble protein is likely only the extracellular part; also called hIL-36R; human IL36R antigen; not shown: His tag
T2 sequence: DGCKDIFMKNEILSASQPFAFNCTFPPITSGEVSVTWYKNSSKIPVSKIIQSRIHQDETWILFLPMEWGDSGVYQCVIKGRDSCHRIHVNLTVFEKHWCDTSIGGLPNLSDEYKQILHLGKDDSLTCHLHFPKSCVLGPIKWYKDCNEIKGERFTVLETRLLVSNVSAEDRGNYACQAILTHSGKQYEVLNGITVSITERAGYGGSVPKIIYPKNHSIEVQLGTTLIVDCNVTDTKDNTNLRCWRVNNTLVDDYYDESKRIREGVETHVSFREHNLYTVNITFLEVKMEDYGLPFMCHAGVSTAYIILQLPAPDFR
Method: The binding activity of anti-IL-36R antibodies to IL-36R was analyzed by ELISA using human IL-1Rrp2/IL-1R6 protein, His Tag (ACROBiosystems, IL2-H52H6) and CynoIL36R-ECD mFc (for detection of chimeric and humanized antibodies), and hIL36R-ECD hFc and CynoIL36R-ECD hFc protein (for detection of hybridoma antibodies) as antigens. A 96-well plate (Costar, 9018) was coated with 2 μg/mL antigen at 100 μL/well and incubated overnight at 4° C. After the 96-well plate was washed with a washing buffer (PBS containing 0.05% v/v Tween 20), a blocking buffer (PBS containing 2% bovine serum albumin) was added for blocking at 37° C. for 2 h. After the 96-well plate was washed with the washing buffer, 100 μL of the gradient diluted anti-IL-36R antibody of the present disclosure or the reference antibody BI655130 (the initial concentration of the antibody was 66 nM, 4-fold gradient dilution) was added to each well, and the plate was incubated at room temperature for 1 h. After the 96-well plate was washed with the washing buffer, 100 μL of horseradish peroxidase-conjugated recombinant protein A/G (TheroScientific, 32490) was added to each well, and the plate was incubated at room temperature for 1 h. After the 96-well plate was washed with the washing buffer, 100 μL of a TMB solution (Thermo, 00-4201-56) was added to each well, and the plate was incubated at room temperature for 2 min. Finally, 100 μL of a stop solution (2 N H₂SO₄) was added to each well to stop the reaction. Absorbance was read at 450 nm using a microplate reader (PE, Envision), the resulting data was analyzed using GraphPad Prism, and EC₅₀ was calculated. Binding EC₅₀ of the chimeric anti-IL-36R antibodies to hIL-36R in an ELISA assay is shown in FIG. 1. and binding EC₅₀ of the chimeric anti-IL-36R antibodies to CynoIL-36R in an ELISA assay is shown in FIG. 2. The binding of BI655130 is shown as a control, and the binding of IgG4 is shown as a negative control.

Row | Binder | IC50; IL-8 production of NHK cells stimulated with hIL36γ, inhibition rate % [1] | EC50 [2]
1 | B1 | 125 pM | 970 pM
2 | B2 | 38.7 pM | 761 pM
3 | B3 | 48.6 pM | 2620 pM
